Measured values published in PMC13100509, “A milestone in C4 carbon concentration mechanism evolution: structural remodeling of NADP-malic enzyme in Poaceae” (Molecular Biology and Evolution, 2026).
Changes are numbered by the printed parent chain. Names may count otherwise. “And” between values parts separate entries of the source, which are not always exact repeats. Equal entries are not always repeated.

Experiments:
[1] = target: nonC4I148F mutant of maize nonC4-NADP-ME (maize (Zea mays)); test: native gel or EMSA; native PAGE (6% or 7%) of purified recombinant proteins, 100 V, 4 °C; Coomassie staining or in-gel NADP-ME activity assay; oligomeric state from mobility against native markers
[2] = target: nonC4R208G mutant of maize nonC4-NADP-ME (maize (Zea mays)); test: as above
[3] = target: nonC4Δ15 with R208G (maize (Zea mays)); test: as above
[4] = target: maize Cyt2-NADP-ME, recombinant wild type (maize (Zea mays)); test: as above
[5] = target: nonC4R171T mutant of maize nonC4-NADP-ME (maize (Zea mays)); test: as above
[6] = target: nonC4N172D mutant of maize nonC4-NADP-ME (maize (Zea mays)); test: as above
[7] = target: nonC4Δ15 with N172D (maize (Zea mays)); test: as above
[8] = target: plastidic nonC4-NADP-ME from maize extracts (maize (endogenous in maize etiolated leaves and roots)); test: native gel or EMSA; native PAGE (7%) of maize extracts of etiolated leaves and roots; in-gel NADP-ME activity assay, active bands excised and identified by mass spectrometry; mobility compared with the recombinant proteins
[9] = target: nonC4Δ15 with I148F (maize (Zea mays)); test: native gel or EMSA; native PAGE (6% or 7%) of purified recombinant proteins, 100 V, 4 °C; Coomassie staining or in-gel NADP-ME activity assay; oligomeric state from mobility against native markers
[10] = target: nonC4Δ15 variant of maize nonC4-NADP-ME (maize (Zea mays)); test: as above
[11] = target: nonC4Δ15 with R171T (maize (Zea mays)); test: as above
[12] = target: C4 + 15 variant of maize C4-NADP-ME (maize (Zea mays)) (UniProt P16243); test: as above
purified protein = substrate: O=C(O)C[C@H](O)C(=O)O; test: purified protein; format: biochemical, Zea mays; conditions: pH 8.0, 25 °C, 0.5 mM NADP, 10 mM MgCl2
[13] = target: the molecule itself; test: native gel or EMSA; native PAGE (6% or 7%) of purified recombinant proteins, 100 V, 4 °C; Coomassie staining or in-gel NADP-ME activity assay; oligomeric state from mobility against native markers

Molecule “nonC4I148F mutant of maize nonC4-NADP-ME (enzyme)” has a stoichiometry N [1] of 2.

“nonC4R208G mutant of maize nonC4-NADP-ME (enzyme)” gave a stoichiometry N [2] of 4.

Molecule nonC4Δ15 with R208G (enzyme) has a stoichiometry N [3] of 4.

Work on “maize Cyt2-NADP-ME, recombinant wild type (enzyme)” yielded a stoichiometry N [4] of 4.

“nonC4R171T mutant of maize nonC4-NADP-ME (enzyme)” was tested, and the stoichiometry N [5] was 2 and 4.

“nonC4N172D mutant of maize nonC4-NADP-ME (enzyme)” showed a stoichiometry N [6] of 4.

For nonC4Δ15 with N172D (enzyme), the stoichiometry N [7] was 4.

Work on “plastidic nonC4-NADP-ME from maize extracts (enzyme)” yielded a stoichiometry N [8] of 2.

In the case of nonC4Δ15 with I148F (enzyme), the stoichiometry N [9] is reported as 4 and 2.

“nonC4Δ15 variant of maize nonC4-NADP-ME (enzyme)” gave a stoichiometry N [10] of 2.

For nonC4Δ15 with R171T (enzyme), the stoichiometry N [11] was 4 and 2.

With “C4 + 15 variant of maize C4-NADP-ME (from UniProt P16243 63-636) (enzyme)” the stoichiometry N [12] was 4.

B1: C4-NADP-ME (Zea mays) (protein)
chain: AMVSNAETETEKEQEEAAAASEELPVMPWATSVASGYTLLRDPHHNKGLAFTEEERDGHYLRGLLPPAVLSQELQIKKFMNTLRQYQTPLQRYIAMMNLQETDERLFYKLLIDNVVELLPFVYTPTVGEACQKYGSIFGRPQGLYVSLKDKGKVLEVLRNWPHRNIQVICVTDGERILGLGDLGCQGMGIPVGKLALYTALGGVDPSVCLPITIDVGTNNEFLLNDEFYIGLRQKRATGEEYDELIEEFMSAVKQFYGEKVLIQFEDFANHNAFDLLEKYSKSHLVFNDDIQGTASVVLAGLLAALKMVGGTLAEQTYLFLGAGEAGTGIAELIALEISKQTNAPIEECRKKVWLVDSKGLIVDSRKGSLQPFKKPWAHEHEPLKTLYDAVQSIKPTVLIGTSGVGRTFTKEIIEAMSSFNERPIIFSLSNPTSHSECTAEQAYTWSQGRSIFASGSPFAPVEYEGKTFVPGQSNNAYIFPGLGLGLVISGAVRVHEDMLLAASKALADQATQDNFEKGSIFPPFTSIRKISAHIAAAVAGKAYELGLATRLPPPSDLVKYAENCMYTPVYRNYR
notes: mature protein without transit peptide, E. coli, pET16b His-tag (Factor Xa site); homotetramer about 250 kDa
B1 was tested, and the Km (purified protein) was 170 ± 20 µM and the kcat (purified protein) was 67.5 ± 1.4 s⁻¹.

B2: C4-NADP-ME (Zea mays; G200R) (protein)
chain: B1 chain with G139R
notes: as for B1
With B2 the Km (purified protein) was 2450 ± 450 µM and the kcat (purified protein) was 21.6 ± 0.8 s⁻¹.

B3: C4T163R mutant of maize C4-NADP-ME (enzyme, maize (Zea mays), UniProt P16243 63-636, looked up)
chain: MVSNAETETEKEQEEAAAASEELPVMPWATSVASGYTLLRDPHHNKGLAFTEEERDGHYLRGLLPPAVLSQELQIKKFMNTLRQYQTPLQRYIAMMNLQERDERLFYKLLIDNVVELLPFVYTPTVGEACQKYGSIFGRPQGLYVSLKDKGKVLEVLRNWPHRNIQVICVTDGERILGLGDLGCQGMGIPVGKLALYTALGGVDPSVCLPITIDVGTNNEFLLNDEFYIGLRQKRATGEEYDELIEEFMSAVKQFYGEKVLIQFEDFANHNAFDLLEKYSKSHLVFNDDIQGTASVVLAGLLAALKMVGGTLAEQTYLFLGAGEAGTGIAELIALEISKQTNAPIEECRKKVWLVDSKGLIVDSRKGSLQPFKKPWAHEHEPLKTLYDAVQSIKPTVLIGTSGVGRTFTKEIIEAMSSFNERPIIFSLSNPTSHSECTAEQAYTWSQGRSIFASGSPFAPVEYEGKTFVPGQSNNAYIFPGLGLGLVISGAVRVHEDMLLAASKALADQATQDNFEKGSIFPPFTSIRKISAHIAAAVAGKAYELGLATRLPPPSDLVKYAENCMYTPVYRNYR
notes: C4-NADP-malic enzyme (ZmC4-NADP-ME), plastidic C4 isoform of maize; source: E. coli Rosetta2 (DE3) or ArcticExpress (DE3), purified (Ni-NTA)
B3 was tested, and the “stoichiometry N” value [13] was 2 and 4.

B4: C4D164N mutant of maize C4-NADP-ME (enzyme, maize (Zea mays), UniProt P16243 63-636, looked up)
chain: B3 chain with R101T, D102N
notes: as for B3
For B4, the “stoichiometry N” value [13] was 2 and 4.

B5: C4G200R mutant of maize C4-NADP-ME (enzyme, maize (Zea mays), UniProt P16243 63-636, looked up)
chain: B3 chain with R101T, G138R
notes: C4-NADP-malic enzyme (ZmC4-NADP-ME), plastidic C4 isoform of maize; also called C4-NADP-ME-G200R; source: E. coli Rosetta2 (DE3) or ArcticExpress (DE3), purified (Ni-NTA)
In the case of B5, the “stoichiometry N” value [13] is reported as 2.

B6: C4NnC4GR variant of maize C4-NADP-ME (enzyme)
chain: AAEMEQEEAEVAAAAAGVVVEDHYGEDSASEELPVMPWATSVASGYTLLRDPHHNKGLAFTEEERDGHYLRGLLPPAVLSQELQIKKFMNTLRQYQTPLQRYIAMMNLQETDERLFYKLLIDNVVELLPFVYTPTVGEACQKYGSIFRRPQGLYVSLKDKGKVLEVLRNWPHRNIQVICVTDGERILGLGDLGCQGMGIPVGKLALYTALGGVDPSVCLPITIDVGTNNEKLLNDEFYIGLRQKRATGEEYDELIEEFMSAVKQFYGEKVLIQFEDFANHNAFDLLEKYSKSHLVFNDDIQGTASVVLAGLLAALKMVGGTLAEQTYLFLGAGEAGTGIAELIALEISKQTNAPIEECRKKVWLVDSKGLIVDSRKGSLQPFKKPWAHEHEPLKTLYDAVQSIKPTVLIGTSGVGRTFTKEIIEAMSSFNERPIIFSLSNPTSHSECTAEQAYTWSQGRSIFASGSPFAPVEYEGKTFVPGQSNNAYIFPGLGLGLVISGAVRVHEDMLLAASKALADQATQDNFEKGSIFPPFTSIRKISAHIAAAVAAKAYELGLATRLPPPSDLVKYAENCMYTPVYRNYR
B6 was tested, and the “stoichiometry N” value [13] was 2.

B7: C4N15GR variant of maize C4-NADP-ME (enzyme)
chain: AAGVVVEDHYGEDSASEELPVMPWATSVASGYTLLRDPHHNKGLAFTEEERDGHYLRGLLPPAVLSQELQIKKFMNTLRQYQTPLQRYIAMMNLQETDERLFYKLLIDNVVELLPFVYTPTVGEACQKYGSIFRRPQGLYVSLKDKGKVLEVLRNWPHRNIQVICVTDGERILGLGDLGCQGMGIPVGKLALYTALGGVDPSVCLPITIDVGTNNEKLLNDEFYIGLRQKRATGEEYDELIEEFMSAVKQFYGEKVLIQFEDFANHNAFDLLEKYSKSHLVFNDDIQGTASVVLAGLLAALKMVGGTLAEQTYLFLGAGEAGTGIAELIALEISKQTNAPIEECRKKVWLVDSKGLIVDSRKGSLQPFKKPWAHEHEPLKTLYDAVQSIKPTVLIGTSGVGRTFTKEIIEAMSSFNERPIIFSLSNPTSHSECTAEQAYTWSQGRSIFASGSPFAPVEYEGKTFVPGQSNNAYIFPGLGLGLVISGAVRVHEDMLLAASKALADQATQDNFEKGSIFPPFTSIRKISAHIAAAVAAKAYELGLATRLPPPSDLVKYAENCMYTPVYRNYR
B7 was tested, and the “stoichiometry N” value [13] was 2.

B8: C4Y632F mutant of maize C4-NADP-ME (enzyme, maize (Zea mays), UniProt P16243 63-636, looked up)
chain: B3 chain with R101T, Y570F
notes: as for B3
B8: binds [13].
